{
  "source": "patent US20250302016A1",
  "about": "“GENETICALLY MODIFIED NON-HUMAN ANIMAL WITH HUMAN OR CHIMERIC GENES” (Biocytogen Pharmaceuticals (Beijing) Co., Ltd., priority 2022, published 2025)",
  "molecules": {"B1": {"name": "mIL2: Biotinylated Mouse IL-2 Protein, purchased from Kactus Biosystems (protein, UniProt P04351 21-169, looked up)", "Interleukin-2": "APTSSSTSSSTAEAQQQQQQQQQQQQHLEQLLMDLQELLSRMENYRNLKLPRMLTFKFYLPKQATELKDLQCLEDELGPLRHVLDLTQSKSFQLEDAENFISNIRVTVVKLKGSDNTFECQFDDESATVVDFLRRWIAFCQSIISTSPQ", "modifications": "biotinylated", "notes": "Biotinylated Mouse IL-2 Protein, purchased from Kactus Biosystems"}},
  "test_system": "IL2 signaling pathway (STAT5 phosphorylation) in mouse splenocytes",
  "assay": "Flow cytometry detection of pSTAT5 expression in T cells and NK cells after IL2 stimulation, IL2RB/IL2RG/IL15/IL15RA four-gene humanized mice",
  "format": "cell-based",
  "details": "for pSTAT5 expression (CD4+ T cell) / pSTAT5 expression (CD8a+ cell) / pSTAT5 expression (NK1.1+ cell): splenocytes, 10 μg/mL IL2",
  "description": "The IL2 and IL15 signaling pathways in IL2RB/IL2RG double-gene humanized mice were detected by flow cytometry. Specifically, three 6-week old female C57BL/6 wild-type mice (+/+), three IL2RB/IL2RG double-gene humanized heterozygous mice (H/+; H/+), and three IL2RB/IL2RG double-gene humanized homozygous mice (H/H; H/H) were selected. […] No primary antibody was added to the corresponding secondary antibody control groups.\nThe IL2 and IL15 signaling pathways in IL2RB/IL2RG/IL15/IL15RA four-gene humanized mice were detected by flow cytometry. […] The cells were stained with: Brilliant Violet 421™ anti-mouse NK-1.1 Antibody, APC anti-mouse CD4 Antibody, and/or Alexa Fluor 700 anti-mouse CD8a Antibody, and then subjected to flow cytometry analysis.",
  "key": {"[1]": {"details": "IL2RB/IL2RG/IL15/IL15RA four-gene humanized homozygous mice (H/H)"}},
  "data": [
    {"molecule": "B1", "values": [
      {"measurement": "pSTAT5 expression (CD4+ T cell)", "setting": "[1]", "value": 5.3, "unit": "%"},
      {"measurement": "pSTAT5 expression (CD8a+ cell)", "setting": "[1]", "value": 12.5, "unit": "%"},
      {"measurement": "pSTAT5 expression (NK1.1+ cell)", "setting": "[1]", "value": 70.7, "unit": "%"},
      {"measurement": "phosphorylated expression of STAT5 after stimulation (in words)", "setting": "splenocytes of +/+ and four-gene humanized homozygous (H/H) mice, 10 μg/mL", "value": "phosphorylated expression of STAT5 was detected"},
      {"measurement": "pSTAT5 expression (CD4+ T cell)", "setting": "wild-type C57BL/6 mice (+/+)", "value": 16.6, "unit": "%"},
      {"measurement": "pSTAT5 expression (CD8a+ cell)", "setting": "wild-type C57BL/6 mice (+/+)", "value": 89.9, "unit": "%"},
      {"measurement": "pSTAT5 expression (NK1.1+ cell)", "setting": "wild-type C57BL/6 mice (+/+)", "value": 41.6, "unit": "%"}
    ]}
  ]
}
